Measurements: the supplement of paper PMC9112550, “Optimization of the antimicrobial peptide Bac7 by deep mutational scanning” (BMC Biology, 2022)

tested on: Escherichia coli TOP10; experiment: shrunken log2 fold change of peptide-encoding DNA abundance (4.5 h post-induction vs induction); higher = less antimicrobial activity (less host growth inhibition); conditions: time post-induction: 4.5 h; library: site-saturation at positions 5, 18, 19, 20
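Also: peptides expressed intracellularly from a pBAD plasmid library in pooled LB shake-flask culture, induced with 0.3% L-arabinose, DNA abundance read by NGS, three biological replicates, DESeq2 with apeglm shrinkage.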

| Sequence | shrunken log2 fold change |
| --- | --- |
| RRIRQRPPRLPRPRPRPMVLPRP | 0.0309 |
| RRIRCRPPRLPRPRPRPYDAPRP | -0.334 |
| RRIRCRPPRLPRPRPRPLPTPRP | 0.63 |
| RRIRYRPPRLPRPRPRPAPRPRP | 0.57 |
| RRIRCRPPRLPRPRPRPVWSPRP | -0.119 |
| RRIRNRPPRLPRPRPRPQRMPRP | 0.0535 |
| RRIRNRPPRLPRPRPRPMCNPRP | -0.0631 |
| RRIRQRPPRLPRPRPRPEWQPRP | 0.00709 |
| RRIRCRPPRLPRPRPRPAGIPRP | -0.0496 |
| RRIRYRPPRLPRPRPRPLRNPRP | -0.277 |
| RRIRWRPPRLPRPRPRPLILPRP | -0.604 |
| RRIRERPPRLPRPRPRPCTFPRP | -0.129 |
| RRIRKRPPRLPRPRPRPYIKPRP | -0.28 |
| RRIRKRPPRLPRPRPRPYPLPRP | -0.095 |
| RRIRLRPPRLPRPRPRPGYGPRP | 0.0339 |
| RRIRCRPPRLPRPRPRPRSNPRP | -0.349 |
| RRIRHRPPRLPRPRPRPRPFPRP | -0.18 |
| RRIRCRPPRLPRPRPRPVLTPRP | -0.191 |
| RRIRSRPPRLPRPRPRPGCHPRP | 0.328 |
| RRIRLRPPRLPRPRPRPHEKPRP | 0.0162 |
| RRIRMRPPRLPRPRPRPWEFPRP | 0.0443 |
| RRIRTRPPRLPRPRPRPFMWPRP | -0.119 |

| Sequence | shrunken log2 fold change |
| --- | --- |
| RRIRIRPPRLPRPRPRPDVAPRP | -0.206 |
| RRIRTRPPRLPRPRPRPGRKPRP | 0.282 |
| RRIRVRPPRLPRPRPRPTHDPRP | 0.143 |
| RRIRTRPPRLPRPRPRPNNVPRP | -0.227 |
| RRIRQRPPRLPRPRPRPEQRPRP | 0.0426 |
| RRIRARPPRLPRPRPRPYCYPRP | -0.227 |
| RRIRPRPPRLPRPRPRPTPNPRP | 0.579 |
| RRIRFRPPRLPRPRPRPMMMPRP | -0.101 |
| RRIRIRPPRLPRPRPRPPPCPRP | 0.0616 |
| RRIRRRPPRLPRPRPRPYWKPRP | 0.0393 |
| RRIRNRPPRLPRPRPRPVPMPRP | -0.0134 |
| RRIRIRPPRLPRPRPRPDREPRP | 0.00825 |
| RRIRIRPPRLPRPRPRPHHLPRP | -0.221 |
| RRIRCRPPRLPRPRPRPKHAPRP | 0.302 |
| RRIRHRPPRLPRPRPRPRRMPRP | 0.254 |
| RRIRDRPPRLPRPRPRPGEVPRP | 0.247 |
| RRIRWRPPRLPRPRPRPHSHPRP | -3.83e-05 |
| RRIRHRPPRLPRPRPRPAWLPRP | 0.163 |
| RRIRVRPPRLPRPRPRPSVNPRP | -0.291 |
| RRIRARPPRLPRPRPRPTDFPRP | -0.000766 |
| RRIRYRPPRLPRPRPRPPYRPRP | -0.714 |
| RRIRERPPRLPRPRPRPLSDPRP | -0.0828 |

| Sequence | shrunken log2 fold change |
| --- | --- |
| RRIRGRPPRLPRPRPRPEYCPRP | 0.307 |
| RRIRYRPPRLPRPRPRPWQKPRP | -0.166 |
| RRIRARPPRLPRPRPRPHWMPRP | 0.0379 |
| RRIRARPPRLPRPRPRPWTIPRP | -0.0653 |
| RRIRNRPPRLPRPRPRPIQPPRP | -0.213 |
| RRIRCRPPRLPRPRPRPMRCPRP | 0.404 |
| RRIRRRPPRLPRPRPRPVIMPRP | 0.189 |
| RRIRSRPPRLPRPRPRPAHSPRP | -0.332 |
| RRIRNRPPRLPRPRPRPNNKPRP | -0.63 |
| RRIRLRPPRLPRPRPRPKLSPRP | 0.0605 |
| RRIRERPPRLPRPRPRPMRGPRP | 1.19 |
| RRIRVRPPRLPRPRPRPWCQPRP | -0.187 |
| RRIRDRPPRLPRPRPRPYETPRP | -0.198 |
| RRIRDRPPRLPRPRPRPWSIPRP | -0.105 |
| RRIRGRPPRLPRPRPRPWREPRP | 0.599 |
| RRIRSRPPRLPRPRPRPGPPPRP | 0.46 |
| RRIRNRPPRLPRPRPRPSSLPRP | -0.333 |
| RRIRWRPPRLPRPRPRPCDFPRP | 0.123 |
| RRIRCRPPRLPRPRPRPGCFPRP | 0.0804 |
| RRIRNRPPRLPRPRPRPAGDPRP | 0.395 |
| RRIRGRPPRLPRPRPRPLSLPRP | 0.419 |
| RRIRYRPPRLPRPRPRPISFPRP | -0.00256 |

| Sequence | shrunken log2 fold change |
| --- | --- |
| RRIRRRPPRLPRPRPRPMCMPRP | -0.0115 |
| RRIRVRPPRLPRPRPRPWPMPRP | 0.0297 |
| RRIRGRPPRLPRPRPRPEIFPRP | 1.02 |
| RRIRKRPPRLPRPRPRPSRLPRP | 0.111 |
| RRIRRRPPRLPRPRPRPYERPRP | -0.18 |
| RRIRARPPRLPRPRPRPSTNPRP | 0.0112 |
| RRIRHRPPRLPRPRPRPGWFPRP | 0.0663 |
| RRIRSRPPRLPRPRPRPRNGPRP | 0.308 |
| RRIRIRPPRLPRPRPRPAHNPRP | -0.271 |
| RRIRNRPPRLPRPRPRPHGHPRP | -0.0841 |
| RRIRGRPPRLPRPRPRPGIEPRP | 0.118 |
| RRIRCRPPRLPRPRPRPTLWPRP | 0.313 |
| RRIRPRPPRLPRPRPRPRLTPRP | 0.293 |
| RRIRERPPRLPRPRPRPFTTPRP | -0.381 |
| RRIRCRPPRLPRPRPRPILCPRP | 2.87 |
| RRIRVRPPRLPRPRPRPQANPRP | 0.0748 |
| RRIRCRPPRLPRPRPRPHLVPRP | 0.565 |
| RRIRLRPPRLPRPRPRPATFPRP | -0.0149 |
| RRIRYRPPRLPRPRPRPGCQPRP | 0.0142 |
| RRIRDRPPRLPRPRPRPLEKPRP | 0.0929 |
| RRIRLRPPRLPRPRPRPYSSPRP | -0.203 |
| RRIRPRPPRLPRPRPRPLRAPRP | 0.86 |

| Sequence | shrunken log2 fold change |
| --- | --- |
| RRIRERPPRLPRPRPRPLTEPRP | -0.298 |
| RRIRGRPPRLPRPRPRPSWEPRP | 0.0693 |
| RRIRPRPPRLPRPRPRPTCAPRP | 0.268 |
| RRIRVRPPRLPRPRPRPKVIPRP | -0.21 |
| RRIRLRPPRLPRPRPRPPTGPRP | 0.146 |
| RRIRTRPPRLPRPRPRPYEAPRP | -0.966 |
| RRIRDRPPRLPRPRPRPPWAPRP | 0.311 |
| RRIRRRPPRLPRPRPRPIEHPRP | -0.00775 |
| RRIRARPPRLPRPRPRPADAPRP | 0.473 |
| RRIRDRPPRLPRPRPRPTNIPRP | -0.271 |
| RRIRFRPPRLPRPRPRPLTQPRP | -0.155 |
| RRIRSRPPRLPRPRPRPMVQPRP | 0.13 |
| RRIRKRPPRLPRPRPRPAQEPRP | 0.371 |
| RRIRCRPPRLPRPRPRPPELPRP | 0.643 |
| RRIRNRPPRLPRPRPRPATVPRP | -0.17 |
| RRIRSRPPRLPRPRPRPDLKPRP | -0.00372 |
| RRIRYRPPRLPRPRPRPAMEPRP | 0.0738 |
| RRIRPRPPRLPRPRPRPNSDPRP | -0.39 |
| RRIRWRPPRLPRPRPRPKSYPRP | 0.0188 |
| RRIRCRPPRLPRPRPRPTKWPRP | -0.121 |
| RRIRERPPRLPRPRPRPNENPRP | -0.111 |
